B1: GpH7-A5/GpH7-B3 variant L234_10E/GpL16-k0 (antibody, human IgG1, kappa)
heavy 1: not shown
heavy 2: not shown
light: DIVMTQSPLSLPVTPGEPASISCQASESLVHSNRNTYLHWYLQKPGQSPQLLIYKVSNRFSGVPDRFSGSGSGTDFTLKISRVEAEDVGVYYCSQNTHVPPTFGQGTKVEIERTVAAPSVFIFPPSDEQLKSGTASVVCLLNNFYPREAKVQWKVDNALQSGNSQESVTEQDSKDSTYSLSSTLTLSKADYEKHKVYACEVTHQGLSSPVTKSFNRGEC
notes: Heterodimerized antibody, alteration in one H chain only; also called He Ab L234E
B2: GpH7-A5/GpH7-B3 variant L235_20W/GpL16-k0 (antibody, human IgG1, kappa)
heavy 1: not shown
heavy 2: not shown
light: B1 light
notes: Heterodimerized antibody, alteration in one H chain only; also called He Ab L235W
B3: GpH7-A5/GpH7-B3 variant P238_04F/GpL16-k0 (antibody, human IgG1, kappa)
heavy 1: not shown
heavy 2: not shown
light: B1 light
notes: Heterodimerized antibody, alteration in one H chain only; also called He Ab P238F
B4: GpH7-A5/GpH7-B3 variant L235_09D/GpL16-k0 (antibody, human IgG1, kappa)
heavy 1: not shown
heavy 2: not shown
light: B1 light
notes: Heterodimerized antibody, alteration in one H chain only; also called He Ab L235D
B5: GpH7-A5/GpH7-B3 variant P238_01G/GpL16-k0 (antibody, human IgG1, kappa)
heavy 1: not shown
heavy 2: not shown
light: B1 light
notes: Heterodimerized antibody, alteration in one H chain only; also called He Ab P238G
B6: GpH7-A5/GpH7-B3 variant P238_03V/GpL16-k0 (antibody, human IgG1, kappa)
heavy 1: not shown
heavy 2: not shown
light: B1 light
notes: Heterodimerized antibody, alteration in one H chain only; also called He Ab P238V
B7: GpH7-A5/GpH7-B3 variant P238_06M/GpL16-k0 (antibody, human IgG1, kappa)
heavy 1: not shown
heavy 2: not shown
light: B1 light
notes: Heterodimerized antibody, alteration in one H chain only; also called He Ab P238M
B8: GpH7-A5/GpH7-B3 variant G237_02A/GpL16-k0 (antibody, human IgG1, kappa)
heavy 1: not shown
heavy 2: not shown
light: B1 light
notes: IgG1, anti-glypican-3; also called He Ab
B9: GpH7-A5/GpH7-B3 variant G237_16H/GpL16-k0 (antibody, human IgG1, kappa)
heavy 1: not shown
heavy 2: not shown
light: B1 light
notes: as for B8
B10: GpH7-A5/GpH7-B3 variant G237_15Y/GpL16-k0 (antibody, human IgG1, kappa)
heavy 1: not shown
heavy 2: not shown
light: B1 light
notes: as for B8
B11: GpH7-A5/GpH7-B3 variant G237_04F/GpL16-k0 (antibody, human IgG1, kappa)
heavy 1: not shown
heavy 2: not shown
light: B1 light
notes: as for B8
B12: GpH7-A5/GpH7-B3 variant L235_15Y/GpL16-k0 (antibody, human IgG1, kappa)
heavy 1: not shown
heavy 2: not shown
light: B1 light
notes: as for B8
B13: GpH7-A5/GpH7-B3 variant G237_20W/GpL16-k0 (antibody, human IgG1, kappa)
heavy 1: not shown
heavy 2: not shown
light: B1 light
notes: as for B8
B14: GpH7-A5/GpH7-B3 variant G236_09D/GpL16-k0 (antibody, human IgG1, kappa)
heavy 1: not shown
heavy 2: not shown
light: B1 light
notes: as for B8
B15: GpH7-A5/GpH7-B3 variant L235_04F/GpL16-k0 (antibody, human IgG1, kappa)
heavy 1: not shown
heavy 2: not shown
light: B1 light
notes: as for B8
B16: GpH7-A5/GpH7-B3 variant G237_08L/GpL16-k0 (antibody, human IgG1, kappa)
heavy 1: not shown
heavy 2: not shown
light: B1 light
notes: as for B8
B17: GpH7-A5/GpH7-B3 variant G237_13S/GpL16-k0 (antibody, human IgG1, kappa)
heavy 1: not shown
heavy 2: not shown
light: B1 light
notes: as for B8
B18: GpH7-A5/GpH7-B3 variant G237_10E/GpL16-k0 (antibody, human IgG1, kappa)
heavy 1: not shown
heavy 2: not shown
light: B1 light
notes: as for B8
B19: GpH7-A5/GpH7-B3 variant P238_02A/GpL16-k0 (antibody, human IgG1, kappa)
heavy 1: not shown
heavy 2: not shown
light: B1 light
notes: as for B8
B20: GpH7-A5/GpH7-B3 variant P238_01G/GpL16-k0 (antibody, human IgG1, kappa)
heavy 1: not shown
heavy 2: not shown
light: B1 light
notes: as for B8
B21: GpH7-A5/GpH7-B3 variant L234_09D/GpL16-k0 (antibody, human IgG1, kappa)
heavy 1: not shown
heavy 2: not shown
light: B1 light
notes: as for B8
B22: GpH7-A5/GpH7-B3 variant G237_19Q/GpL16-k0 (antibody, human IgG1, kappa)
heavy 1: not shown
heavy 2: not shown
light: B1 light
notes: as for B8
B23: GpH7-A5/GpH7-B3 variant G237_18N/GpL16-k0 (antibody, human IgG1, kappa)
heavy 1: not shown
heavy 2: not shown
light: B1 light
notes: as for B8
B24: GpH7-A5/GpH7-B3 variant G237_06M/GpL16-k0 (antibody, human IgG1, kappa)
heavy 1: not shown
heavy 2: not shown
light: B1 light
notes: as for B8
B25: GpH7-A5/GpH7-B3 variant L235_20W/GpL16-k0 (antibody, human IgG1, kappa)
heavy 1: not shown
heavy 2: not shown
light: B1 light
notes: as for B8
B26: GpH7-A5/GpH7-B3 variant G237_05P/GpL16-k0 (antibody, human IgG1, kappa)
heavy 1: not shown
heavy 2: not shown
light: B1 light
notes: as for B8
B27: GpH7-A5/GpH7-B3 variant G236_11K/GpL16-k0 (antibody, human IgG1, kappa)
heavy 1: not shown
heavy 2: not shown
light: B1 light
notes: as for B8
B28: GpH7-A5/GpH7-B3 variant G236_13S/GpL16-k0 (antibody, human IgG1, kappa)
heavy 1: not shown
heavy 2: not shown
light: B1 light
notes: as for B8
B29: GpH7-A5/GpH7-B3 variant L235_16H/GpL16-k0 (antibody, human IgG1, kappa)
heavy 1: not shown
heavy 2: not shown
light: B1 light
notes: as for B8
B30: GpH7-A5/GpH7-B3 variant G236_18N/GpL16-k0 (antibody, human IgG1, kappa)
heavy 1: not shown
heavy 2: not shown
light: B1 light
notes: as for B8
B31: GpH7-A5/GpH7-B3 variant G237_09D/GpL16-k0 (antibody, human IgG1, kappa)
heavy 1: not shown
heavy 2: not shown
light: B1 light
notes: as for B8
B32: GpH7-A5/GpH7-B3 variant G236_10E/GpL16-k0 (antibody, human IgG1, kappa)
heavy 1: not shown
heavy 2: not shown
light: B1 light
notes: as for B8

These binders were tested against T1, FcγRIIa H (human, UniProt P12318 34-217) (assay: SPR (Biacore); He/Con_2aH divided by He/Con_2b (FcγRIIa H over FcγRIIb)).
T1 construct: extracellular domain; also called FcgRIIa H; FcγRIIa type H
T1 sequence (looked up): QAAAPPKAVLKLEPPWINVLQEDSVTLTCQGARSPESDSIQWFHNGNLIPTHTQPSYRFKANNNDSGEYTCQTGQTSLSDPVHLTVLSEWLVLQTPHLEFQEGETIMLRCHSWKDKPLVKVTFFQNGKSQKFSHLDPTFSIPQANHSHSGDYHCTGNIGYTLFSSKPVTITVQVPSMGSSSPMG

Binder | He_2aH/2b (IIaH/IIb)
B1 | 0.75 ratio
B2 | 0.8 ratio
B3 | 0.21 ratio
B4 | 0.71 ratio
B5 | 0.66 ratio
B6 | 0.74 ratio
B7 | 0.27 ratio

These binders were tested against T2, FcγRIIIa extracellular domain with C-terminal His tag (human, UniProt P08637 17-208) (assay: SPR (Biacore); ratio of He/Con_3a (FcγRIIIa) to He/Con_2b (FcγRIIb)).
T2 construct: extracellular domain; also called 3a; FcgRIIIa; not shown: His tag at the C terminus
T2 sequence (P08637 17-208): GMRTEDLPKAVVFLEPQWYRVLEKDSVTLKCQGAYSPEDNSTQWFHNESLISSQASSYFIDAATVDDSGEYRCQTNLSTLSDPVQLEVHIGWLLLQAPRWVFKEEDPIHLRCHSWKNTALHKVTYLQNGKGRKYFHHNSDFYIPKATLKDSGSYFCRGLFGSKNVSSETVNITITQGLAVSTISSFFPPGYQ

Binder | He_3a/2b (IIIa/IIb)
B8 | 0.39
B9 | 0.31
B10 | 0.14
B11 | 0.17
B12 | 0.54
B13 | 0.1
B14 | 0.43
B15 | 0.67
B16 | 0.17
B17 | 0.35
B18 | 0.22
B19 | 0.55
B20 | 0.59
B21 | 0.78
B22 | 0.4
B23 | 0.11
B24 | 0.25
B25 | 0.52
B26 | 0.44
B27 | 0.37
B28 | 0.67
B29 | 0.77
B30 | 0.39
B31 | 0.08
B32 | 0.64

These binders were tested against T3, FcγRIIb extracellular domain with C-terminal His tag (human, UniProt P31994 43-217) (assay: SPR (Biacore), relative to GpH7-A5/GpH7-B3/GpL16-k0 = 100).
T3 construct: extracellular domain; also called 2b; FcgRIIb; not shown: His tag at the C terminus
T3 sequence (looked up): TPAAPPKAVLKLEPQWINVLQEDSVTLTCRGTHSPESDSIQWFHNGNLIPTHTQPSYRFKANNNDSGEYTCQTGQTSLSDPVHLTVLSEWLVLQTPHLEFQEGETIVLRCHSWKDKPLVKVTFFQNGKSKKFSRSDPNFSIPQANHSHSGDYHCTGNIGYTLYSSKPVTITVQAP

Binder | He/Con_2b
B8 | 124 % (control = 100)
B9 | 55.2 % (control = 100)
B10 | 152 % (control = 100)
B11 | 149 % (control = 100)
B12 | 149 % (control = 100)
B13 | 193 % (control = 100)
B14 | 167 % (control = 100)
B15 | 118 % (control = 100)
B16 | 148 % (control = 100)
B17 | 111 % (control = 100)
B18 | 114 % (control = 100)
B19 | 57.4 % (control = 100)
B20 | 56 % (control = 100)
B21 | 150 % (control = 100)
B22 | 108 % (control = 100)
B23 | 180 % (control = 100)
B24 | 130 % (control = 100)
B25 | 147 % (control = 100)
B26 | 24.6 % (control = 100)
B27 | 49.8 % (control = 100)
B28 | 96.7 % (control = 100)
B29 | 76.9 % (control = 100)
B30 | 96.4 % (control = 100)
B31 | 223 % (control = 100)
B32 | 110 % (control = 100)

These binders were tested against T2, FcγRIIIa extracellular domain with … in the same assay as above.

Binder | He/Con_3a
B8 | 48.8 % (control = 100)
B9 | 17.2 % (control = 100)
B10 | 22.1 % (control = 100)
B11 | 25.3 % (control = 100)
B12 | 80.6 % (control = 100)
B13 | 19.7 % (control = 100)
B14 | 71.2 % (control = 100)
B15 | 79.1 % (control = 100)
B16 | 24.9 % (control = 100)
B17 | 38.4 % (control = 100)
B18 | 25.4 % (control = 100)
B19 | 31.4 % (control = 100)
B20 | 33 % (control = 100)
B21 | 117 % (control = 100)
B22 | 43.3 % (control = 100)
B23 | 20.3 % (control = 100)
B24 | 31.9 % (control = 100)
B25 | 76.4 % (control = 100)
B26 | 10.9 % (control = 100)
B27 | 18.6 % (control = 100)
B28 | 64.8 % (control = 100)
B29 | 59.1 % (control = 100)
B30 | 37.8 % (control = 100)
B31 | 17.7 % (control = 100)
B32 | 70.7 % (control = 100)

What follows are binders tested against T4, FcγRIIb (human, UniProt P31994 43-217) (assay: SPR (Biacore), antibody captured, FcγR analyte; binding relative to GpH7-A5/GpH7-B3/GpL16-k0 = 100).
T4 construct: extracellular domain; also called FcgRIIb; 2b
T4 sequence (looked up): T3 sequence (looked up)

Binder | He/Con_2b
B1 | 118 % of control
B2 | 147 % of control
B3 | 312 % of control
B4 | 106 % of control
B5 | 56 % of control
B6 | 120 % of control
B7 | 174 % of control

Each binder was assayed against T1, FcγRIIa H in the same assay as above.

Binder | He/Con_2aH
B1 | 88.3 % of control
B2 | 118 % of control
B3 | 65.4 % of control
B4 | 75.8 % of control
B5 | 37.3 % of control
B6 | 89 % of control
B7 | 47.6 % of control
